# Reference: publication PMC11002309
# Tested on: PBRM1-BD4 WT
# Assay: EMSA
# Conditions: 20 uM chosen from titration to approximate EC50; 150 nM DNA, protein 0-50 uM; EMSA: 10.5 mM K3PO4 pH 7 (20 °C), 10 mM KCl, 1% v/v glycerol, 0.2 mM DTT; 1 h on ice; 5% 75:1 native gel in 0.2x TBE, 4 °C
substance,measurement,value
Widom 601 DNA,K half,20 µM
